To fix the notation:
B1: Compound No. 5 (peptide)
peptide: {CH2CO}-A[NMeA]NPHL[Sar]WSW[NMeNle][NMeNle]RCG-NH2
modifications: thioether N-14
SMILES: CCCC[C@H]1C(=O)N(C)[C@@H](CCCC)C(=O)N[C@@H](CCCNC(=N)N)C(=O)N[C@H](C(=O)NCC(N)=O)CSCC(=O)N[C@@H](C)C(=O)N(C)[C@@H](C)C(=O)N[C@@H](CC(N)=O)C(=O)N2CCC[C@H]2C(=O)N[C@@H](Cc2c[nH]cn2)C(=O)N[C@@H](CC(C)C)C(=O)N(C)CC(=O)N[C@@H](Cc2c[nH]c3ccccc23)C(=O)N[C@@H](CO)C(=O)N[C@@H](Cc2c[nH]c3ccccc23)C(=O)N1C
B2: Compound No. 11 (peptide)
peptide: {CH2CO}-F[NMeA]NPHA[Sar]WSW[NMeNle][NMeNle]RCG-NH2
modifications: thioether N-14
SMILES: CCCC[C@H]1C(=O)N(C)[C@@H](CCCC)C(=O)N[C@@H](CCCNC(=N)N)C(=O)N[C@H](C(=O)NCC(N)=O)CSCC(=O)N[C@@H](Cc2ccccc2)C(=O)N(C)[C@@H](C)C(=O)N[C@@H](CC(N)=O)C(=O)N2CCC[C@H]2C(=O)N[C@@H](Cc2c[nH]cn2)C(=O)N[C@@H](C)C(=O)N(C)CC(=O)N[C@@H](Cc2c[nH]c3ccccc23)C(=O)N[C@@H](CO)C(=O)N[C@@H](Cc2c[nH]c3ccccc23)C(=O)N1C
B3: Compound No. 7 (peptide)
peptide: {CH2CO}-F[Sar]NPHL[Sar]WSW[NMeNle][NMeNle]RCG-NH2
modifications: thioether N-14
SMILES: CCCC[C@H]1C(=O)N(C)[C@@H](CCCC)C(=O)N[C@@H](CCCNC(=N)N)C(=O)N[C@H](C(=O)NCC(N)=O)CSCC(=O)N[C@@H](Cc2ccccc2)C(=O)N(C)CC(=O)N[C@@H](CC(N)=O)C(=O)N2CCC[C@H]2C(=O)N[C@@H](Cc2c[nH]cn2)C(=O)N[C@@H](CC(C)C)C(=O)N(C)CC(=O)N[C@@H](Cc2c[nH]c3ccccc23)C(=O)N[C@@H](CO)C(=O)N[C@@H](Cc2c[nH]c3ccccc23)C(=O)N1C
B4: Compound No. 16 (peptide)
peptide: {CH2CO}-F[NMeA]NPHL[Sar]WAW[NMeNle][NMeNle]RCG-NH2
modifications: thioether N-14
SMILES: CCCC[C@H]1C(=O)N(C)[C@@H](CCCC)C(=O)N[C@@H](CCCNC(=N)N)C(=O)N[C@H](C(=O)NCC(N)=O)CSCC(=O)N[C@@H](Cc2ccccc2)C(=O)N(C)[C@@H](C)C(=O)N[C@@H](CC(N)=O)C(=O)N2CCC[C@H]2C(=O)N[C@@H](Cc2c[nH]cn2)C(=O)N[C@@H](CC(C)C)C(=O)N(C)CC(=O)N[C@@H](Cc2c[nH]c3ccccc23)C(=O)N[C@@H](C)C(=O)N[C@@H](Cc2c[nH]c3ccccc23)C(=O)N1C
B5: Compound No. 10 (peptide)
peptide: {CH2CO}-F[NMeA]NPAL[Sar]WSW[NMeNle][NMeNle]RCG-NH2
modifications: thioether N-14
SMILES: CCCC[C@H]1C(=O)N(C)[C@@H](CCCC)C(=O)N[C@@H](CCCNC(=N)N)C(=O)N[C@H](C(=O)NCC(N)=O)CSCC(=O)N[C@@H](Cc2ccccc2)C(=O)N(C)[C@@H](C)C(=O)N[C@@H](CC(N)=O)C(=O)N2CCC[C@H]2C(=O)N[C@@H](C)C(=O)N[C@@H](CC(C)C)C(=O)N(C)CC(=O)N[C@@H](Cc2c[nH]c3ccccc23)C(=O)N[C@@H](CO)C(=O)N[C@@H](Cc2c[nH]c3ccccc23)C(=O)N1C
B6: Compound No. 8 (peptide)
peptide: {CH2CO}-F[NMeA]APHL[Sar]WSW[NMeNle][NMeNle]RCG-NH2
modifications: thioether N-14
SMILES: CCCC[C@H]1C(=O)N(C)[C@@H](CCCC)C(=O)N[C@@H](CCCNC(=N)N)C(=O)N[C@H](C(=O)NCC(N)=O)CSCC(=O)N[C@@H](Cc2ccccc2)C(=O)N(C)[C@@H](C)C(=O)N[C@@H](C)C(=O)N2CCC[C@H]2C(=O)N[C@@H](Cc2c[nH]cn2)C(=O)N[C@@H](CC(C)C)C(=O)N(C)CC(=O)N[C@@H](Cc2c[nH]c3ccccc23)C(=O)N[C@@H](CO)C(=O)N[C@@H](Cc2c[nH]c3ccccc23)C(=O)N1C
B7: Compound No. 14 (peptide)
peptide: {CH2CO}-F[NMeA]NPHL[dNMeA]WSW[NMeNle][NMeNle]RCG-NH2
modifications: thioether N-14
SMILES: CCCC[C@H]1C(=O)N(C)[C@@H](CCCC)C(=O)N[C@@H](CCCNC(=N)N)C(=O)N[C@H](C(=O)NCC(N)=O)CSCC(=O)N[C@@H](Cc2ccccc2)C(=O)N(C)[C@@H](C)C(=O)N[C@@H](CC(N)=O)C(=O)N2CCC[C@H]2C(=O)N[C@@H](Cc2c[nH]cn2)C(=O)N[C@@H](CC(C)C)C(=O)N(C)[C@H](C)C(=O)N[C@@H](Cc2c[nH]c3ccccc23)C(=O)N[C@@H](CO)C(=O)N[C@@H](Cc2c[nH]c3ccccc23)C(=O)N1C
B8: Compound No. 13 (peptide)
peptide: {CH2CO}-F[NMeA]NPHL[NMeA]WSW[NMeNle][NMeNle]RCG-NH2
modifications: thioether N-14
SMILES: CCCC[C@H]1C(=O)N(C)[C@@H](CCCC)C(=O)N[C@@H](CCCNC(=N)N)C(=O)N[C@H](C(=O)NCC(N)=O)CSCC(=O)N[C@@H](Cc2ccccc2)C(=O)N(C)[C@@H](C)C(=O)N[C@@H](CC(N)=O)C(=O)N2CCC[C@H]2C(=O)N[C@@H](Cc2c[nH]cn2)C(=O)N[C@@H](CC(C)C)C(=O)N(C)[C@@H](C)C(=O)N[C@@H](Cc2c[nH]c3ccccc23)C(=O)N[C@@H](CO)C(=O)N[C@@H](Cc2c[nH]c3ccccc23)C(=O)N1C
B9: Compound No. 49 (peptide)
peptide: {CH2CO}-F[NMeA]N[αMeP]HL[Sar]WSW[NMeNle][NMeNle]RCG-NH2
modifications: thioether N-14
SMILES: CCCC[C@H]1C(=O)N(C)[C@@H](CCCC)C(=O)N[C@@H](CCCNC(=N)N)C(=O)N[C@H](C(=O)NCC(N)=O)CSCC(=O)N[C@@H](Cc2ccccc2)C(=O)N(C)[C@@H](C)C(=O)N[C@@H](CC(N)=O)C(=O)N2CCC[C@@]2(C)C(=O)N[C@@H](Cc2c[nH]cn2)C(=O)N[C@@H](CC(C)C)C(=O)N(C)CC(=O)N[C@@H](Cc2c[nH]c3ccccc23)C(=O)N[C@@H](CO)C(=O)N[C@@H](Cc2c[nH]c3ccccc23)C(=O)N1C
B10: Compound No. 50 (peptide)
peptide: {CH2CO}-F[NMeA]N[Aze]HL[Sar]WSW[NMeNle][NMeNle]RCG-NH2
modifications: thioether N-14
SMILES: CCCC[C@H]1C(=O)N(C)[C@@H](CCCC)C(=O)N[C@@H](CCCNC(=N)N)C(=O)N[C@H](C(=O)NCC(N)=O)CSCC(=O)N[C@@H](Cc2ccccc2)C(=O)N(C)[C@@H](C)C(=O)N[C@@H](CC(N)=O)C(=O)N2CC[C@H]2C(=O)N[C@@H](Cc2c[nH]cn2)C(=O)N[C@@H](CC(C)C)C(=O)N(C)CC(=O)N[C@@H](Cc2c[nH]c3ccccc23)C(=O)N[C@@H](CO)C(=O)N[C@@H](Cc2c[nH]c3ccccc23)C(=O)N1C

Positions of bridges follow the written chain, without caps; N, C: chain ends. Non-standard residues stand in square brackets, D forms with d. NMeNle = CCCC[C@H](NC)C(=O)O; αMeP = C[C@@]1(C(=O)O)CCCN1; NMeA = CN[C@@H](C)C(=O)O; dNMeA = CN[C@H](C)C(=O)O; Aze = O=C(O)[C@@H]1CCN1; Sar = CNCC(=O)O

What is called IC50 is the concentration that gives 50% inhibition.

This experiment deals with T1, hPDL1(19-239)-TVMV-His (human, UniProt Q9NZQ7 19-239).
T1 construct: The text says amino acids 18-239, the construct name says 19-239; Expressed in HEK293T cells; Used at 10 nM final in the HTRF assay; also called PD-L1-His; PD-L1-TVMV-His
T1 sequence (Q9NZQ7 other isoform, or with tags, fused parts or gaps limits assumed): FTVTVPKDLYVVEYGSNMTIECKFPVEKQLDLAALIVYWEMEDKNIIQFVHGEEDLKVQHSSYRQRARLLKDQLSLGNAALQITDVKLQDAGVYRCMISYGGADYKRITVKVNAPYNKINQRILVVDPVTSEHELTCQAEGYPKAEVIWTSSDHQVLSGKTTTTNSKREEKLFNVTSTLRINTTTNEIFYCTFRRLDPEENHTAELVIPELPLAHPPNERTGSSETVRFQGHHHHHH
The experiment is described as follows: HTRF competition, PD-1-Ig binding to PD-L1-His. The protocol: All binding studies were performed in an HTRF assay buffer consisting of dPBS supplemented with 0.1% (w/v) bovine serum albumin and 0.05% (v/v) Tween-20. […] PD-L1 fusion proteins from either human, cynomologous macaques, or mouse were used. HTRF detection was achieved using europium crypate-labeled anti-Ig monoclonal antibody (1 nM final) and allophycocyanin (APC) labeled anti-His monoclonal antibody (20 nM final). Antibodies were diluted in HTRF detection buffer and 5 μl was dispensed on top of binding reaction. The reaction was allowed to equilibrate for 30 minutes and signal (665 nm/620 nm ratio) was obtained using an EnVision fluorometer. […]
HTRF Experiments were performed essentially as outlined supra. Variant macrocyclic peptides were created as outlined herein.
On the technique in general: TR-FRET usually uses a lanthanide donor and a delayed reading to cut background.
The molecule B1 yielded a 50% inhibitory concentration (IC50) of 6500 nM.
Turning to B2, the half-inhibitory concentration (IC50) came out at 31 nM. This IC50 is about 210-fold lower than that of the molecule before.
On to B3, for which the IC50 is 55 nM.
On to B4, for which the half-maximal inhibitory concentration (IC50) stood at 5 nM.
For B5, the 50% inhibitory concentration (IC50) is 16 nM.
As for B6, the half-maximal inhibitory concentration (IC50) was 31 nM.
Molecule B7 yielded an IC50 of 59 nM. This IC50 is about 1.9-fold higher than that of the molecule before.
B8: the IC50 was 16 nM. Against the preceding molecule, the IC50 is about 3.7-fold lower.
With B9 the figure was 34 nM; with B10, 71 nM.

Values taken from patent US20140294898A1 (published 2014).
